Test results as given in publication PMC9537594.
Where two headings read alike, the source gives them in different places.

Legend:
[1] = target: WT CA nanotubes (pre-formed tubular assemblies of wild-type HIV-1 CA, hexameric lattices) (HIV-1); experiment: co-sedimentation; recombinant GST proteins added to pre-formed WT CA nanotubes, 30 min at 4 °C, 21,000 g for 5 min, pellets washed three times; SDS-PAGE or immunoblot; details: scale: GST-CPSF6(LCR-FG-LCR) molecules per CA hexamer
[2] = target: isolated native HIV-1 cores (HIV-1); experiment: pull-down
[3] = target: isolated native HIV-1 cores (HIV-1); experiment: pull-down; remark: listed apart in the source
[4] = target: Cross-linked His-CAhex: disulfide-stabilized hexamer of 6-His-CA(A14C/E45C/W184A/M185A) (HIV-1); experiment: SPR; Reichert 4-SPR; cross-linked His-CAhex immobilised on an NTA chip via the C-terminal His-tag; peptides 3.9 μM to 2 mM; 0.01 M HEPES pH 7.4, 0.15 M NaCl, 0.05% v/v Surfactant P20; simple kinetic model

Substance: GST-CPSF6_(261-358)(LCR-FG-LCR) (from UniProt Q16630-2 261-358) (domain or fragment)
- stoichiometry N [1]: 2.4

Substance: GST-CPSF6261-358(LCR-FG-LCR) (domain or fragment)
- Kd [2]: 810 nM
- Kd [3]: 890 nM

Substance: NUP153_(1409-1423) 15-mer FG peptide (from UniProt P49790 1409-1423)
- Kd [4]: 131 µM
